The results in this text go back to patent US20140128578A1.

Assay [1] has as its target IgG4 contained in cell-free eukaryotic culture supernatant (Experiment 1, test 1). The experiment in a line: affinity precipitation; 0.13 µmol Z-dimer with 0.065 µmol IgG4 in culture supernatant, 2 h; antibody left in supernatant measured by SEC UV signal and protein A chromatography. In general terms: Size exclusion chromatography separates by hydrodynamic size, large species first.

For assay [2], the target named is IgG1 contained in cell-free eukaryotic culture supernatant (Experiment 1, test 2). The experiment in a line: affinity precipitation; 16.25 nmol Z-dimer with 16.25 nmol IgG1 in culture supernatant, 2 h; antibody left in supernatant measured by SEC UV signal and protein A chromatography.
The target in assay [3] is antibody in cell-free culture supernatant (Experiment 3). The experiment in a line: affinity precipitation from cell-free culture supernatant; antibody to Z-dimer 1:2, 1 h; precipitate collected on a 0.22 µm filter.

Consider “Z-dimer (dimerised protein Z; two Z-domain Cys tag monomers linked via a disulphide bridge) (designed binder)”, for which the percent of antibody precipitated was found to be 99% in assay [1] and 76% in assay [2]. Moreover, the total yield of the antibody after the precipitation in assay [3] came to 98%.
